# Laboratory results as given in patent US20220305081A1.
# Target: human SIRPγ (signal regulatory protein gamma), expressed on cells (human) (UniProt Q9P1W8)
# Test: cell-based or functional assay
# Chain of UniProt Q9P1W8 (Q9P1W8 29-387): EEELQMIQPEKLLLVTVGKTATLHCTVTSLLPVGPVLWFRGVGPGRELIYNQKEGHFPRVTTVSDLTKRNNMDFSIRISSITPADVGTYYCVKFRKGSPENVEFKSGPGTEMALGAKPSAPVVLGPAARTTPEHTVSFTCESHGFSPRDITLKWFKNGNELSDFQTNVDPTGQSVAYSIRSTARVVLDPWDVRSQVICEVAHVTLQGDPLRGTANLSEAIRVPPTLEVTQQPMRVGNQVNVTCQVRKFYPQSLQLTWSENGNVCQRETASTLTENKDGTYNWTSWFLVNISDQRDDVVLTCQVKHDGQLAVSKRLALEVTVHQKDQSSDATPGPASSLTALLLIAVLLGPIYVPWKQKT
substance,measurement,value
anti-SIRPγ monoclonal antibody clone OX117,"level of IFNγ secreted by T cells, relative to OX119-treated cells",> 6 fold
same,"level of IFNγ secreted by T cells, relative to cells treated with LSB2.20",2 fold
